Results: the supplement of paper PMC6757056
± gives the standard deviation of the averaged measurements.

B1: library; a variant is named by its letters at N, in order (parent)
chain: GCUGUCACCGGUGUAUUACCCUAGUGGUCGACCGGUCUGAUGAGUCUNNNNNNAGACGAAACAGC

Experiments:
hypoxanthine [1] = variants of: B1; assay: normalized RNA/DNA level with ligand (relative to sTRSVctl = 100) (log10 (% of sTRSVctl)); ligand: hypoxanthine (xanthine aptamer); higher = less ribozyme self-cleavage, higher mRNA level; details: ligand concentration (+) RNA-Seq: 5 mM, HEK293T, reporter: mCherry (pCS4076), ligand present: yes
In short: (§1)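 HEK293T cells were transfected with library plasmids carrying ribozyme switches linked to an mCherry reporter, or an eGFP reporter in some ligand experiments, at 4 µg per well of a 6-well plate, with any ligand added 1 h beforehand. After 72 h, total RNA was extracted with EDTA, reverse-transcribed, amplified, barcoded and sequenced. RNA level was defined as RNA reads over DNA reads, normalized to a spiked-in non-cleaving sequence or to the top-ranked sequences. That value was multiplied by 100 and converted to log10, the top set was 25 sequences, and only sequences with ≥100 DNA reads were retained.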

hypoxanthine [2] = variants of: B1; assay: normalized RNA/DNA level without ligand (relative to sTRSVctl = 100) (log10 (% of sTRSVctl)); ligand: hypoxanthine (xanthine aptamer); higher = less ribozyme self-cleavage, higher mRNA level; details: HEK293T, reporter: mCherry (pCS4076), ligand present: no
In short: as §1

Variant	normalized RNA/DNA level with ligand (log10) (hypoxanthine [1])	normalized RNA/DNA level without ligand (log10) (hypoxanthine [2])
GCUGUCACCGGUGUAUUACCCUAGUGGUCGACCGGUCUGAUGAGUCUGUUGAAAGACGAAACAGC [GUUGAA]	1.918 ± 0.016	1.744 ± 0.0083
GCUGUCACCGGUGUAUUACCCUAGUGGUCGACCGGUCUGAUGAGUCUUUUCGUAGACGAAACAGC [UUUCGU]	1.96 ± 0.0091	1.851 ± 0.0071
GCUGUCACCGGUGUAUUACCCUAGUGGUCGACCGGUCUGAUGAGUCUUUUCGGAGACGAAACAGC [UUUCGG]	1.964 ± 0.012	1.94 ± 0.072
GCUGUCACCGGUGUAUUACCCUAGUGGUCGACCGGUCUGAUGAGUCUUUUCGAAGACGAAACAGC [UUUCGA]	1.953 ± 0.013	1.915 ± 0.006
GCUGUCACCGGUGUAUUACCCUAGUGGUCGACCGGUCUGAUGAGUCUUUUCGCAGACGAAACAGC [UUUCGC]	1.95 ± 0.023	1.92 ± 0.047
GCUGUCACCGGUGUAUUACCCUAGUGGUCGACCGGUCUGAUGAGUCUGUUCCAAGACGAAACAGC [GUUCCA]	1.963 ± 0.017	1.9 ± 0.029
GCUGUCACCGGUGUAUUACCCUAGUGGUCGACCGGUCUGAUGAGUCUGUUCCGAGACGAAACAGC [GUUCCG]	1.94 ± 0.028	1.72 ± 0.048
GCUGUCACCGGUGUAUUACCCUAGUGGUCGACCGGUCUGAUGAGUCUGUUCCUAGACGAAACAGC [GUUCCU]	1.99 ± 0.012	1.98 ± 0.056
GCUGUCACCGGUGUAUUACCCUAGUGGUCGACCGGUCUGAUGAGUCUGUUCCCAGACGAAACAGC [GUUCCC]	1.99 ± 0.021	1.92 ± 0.044
GCUGUCACCGGUGUAUUACCCUAGUGGUCGACCGGUCUGAUGAGUCUCUUCUCAGACGAAACAGC [CUUCUC]	2.041 ± 0.013	2.03 ± 0.059
GCUGUCACCGGUGUAUUACCCUAGUGGUCGACCGGUCUGAUGAGUCUCUUCUUAGACGAAACAGC [CUUCUU]	2.01 ± 0.066	1.868 ± 0.0019
GCUGUCACCGGUGUAUUACCCUAGUGGUCGACCGGUCUGAUGAGUCUCUUCUAAGACGAAACAGC [CUUCUA]	1.97 ± 0.051	1.85 ± 0.077
GCUGUCACCGGUGUAUUACCCUAGUGGUCGACCGGUCUGAUGAGUCUCUUCUGAGACGAAACAGC [CUUCUG]	1.948 ± 0.013	1.91 ± 0.053
GCUGUCACCGGUGUAUUACCCUAGUGGUCGACCGGUCUGAUGAGUCUAUUCCAAGACGAAACAGC [AUUCCA]	1.92 ± 0.02	1.86 ± 0.042
GCUGUCACCGGUGUAUUACCCUAGUGGUCGACCGGUCUGAUGAGUCUAUUCCCAGACGAAACAGC [AUUCCC]	1.9 ± 0.031	1.87 ± 0.03
GCUGUCACCGGUGUAUUACCCUAGUGGUCGACCGGUCUGAUGAGUCUUUUCUAAGACGAAACAGC [UUUCUA]	1.91 ± 0.02	1.87 ± 0.048
GCUGUCACCGGUGUAUUACCCUAGUGGUCGACCGGUCUGAUGAGUCUUUUCUGAGACGAAACAGC [UUUCUG]	1.942 ± 0.009	1.77 ± 0.026
GCUGUCACCGGUGUAUUACCCUAGUGGUCGACCGGUCUGAUGAGUCUUUUCUCAGACGAAACAGC [UUUCUC]	1.99 ± 0.064	1.963 ± 0.0086
GCUGUCACCGGUGUAUUACCCUAGUGGUCGACCGGUCUGAUGAGUCUUUUCUUAGACGAAACAGC [UUUCUU]	1.94 ± 0.036	1.95 ± 0.036
GCUGUCACCGGUGUAUUACCCUAGUGGUCGACCGGUCUGAUGAGUCUUUUCCUAGACGAAACAGC [UUUCCU]	2.05 ± 0.069	1.9175 ± 0.00088
GCUGUCACCGGUGUAUUACCCUAGUGGUCGACCGGUCUGAUGAGUCUUUUCCGAGACGAAACAGC [UUUCCG]	1.99 ± 0.063	1.83 ± 0.07

Variant	normalized RNA/DNA level with ligand (log10) (hypoxanthine [1])	normalized RNA/DNA level without ligand (log10) (hypoxanthine [2])
GCUGUCACCGGUGUAUUACCCUAGUGGUCGACCGGUCUGAUGAGUCUUUUCCCAGACGAAACAGC [UUUCCC]	1.99 ± 0.024	1.96 ± 0.039
GCUGUCACCGGUGUAUUACCCUAGUGGUCGACCGGUCUGAUGAGUCUUUUCCAAGACGAAACAGC [UUUCCA]	1.95 ± 0.037	1.894 ± 0.0032
GCUGUCACCGGUGUAUUACCCUAGUGGUCGACCGGUCUGAUGAGUCUCUUCGCAGACGAAACAGC [CUUCGC]	1.954 ± 0.0084	1.88 ± 0.034
GCUGUCACCGGUGUAUUACCCUAGUGGUCGACCGGUCUGAUGAGUCUCUUCGUAGACGAAACAGC [CUUCGU]	2.028 ± 0.012	1.9 ± 0.045
GCUGUCACCGGUGUAUUACCCUAGUGGUCGACCGGUCUGAUGAGUCUAUUCUUAGACGAAACAGC [AUUCUU]	1.94 ± 0.055	1.93 ± 0.023
GCUGUCACCGGUGUAUUACCCUAGUGGUCGACCGGUCUGAUGAGUCUAUUCUAAGACGAAACAGC [AUUCUA]	1.92 ± 0.041	1.84 ± 0.062
GCUGUCACCGGUGUAUUACCCUAGUGGUCGACCGGUCUGAUGAGUCUAUUCUGAGACGAAACAGC [AUUCUG]	1.85 ± 0.061	1.61 ± 0.039
GCUGUCACCGGUGUAUUACCCUAGUGGUCGACCGGUCUGAUGAGUCUAUUGAAAGACGAAACAGC [AUUGAA]	1.91 ± 0.047	1.75 ± 0.026
GCUGUCACCGGUGUAUUACCCUAGUGGUCGACCGGUCUGAUGAGUCUGUUCUUAGACGAAACAGC [GUUCUU]	1.95 ± 0.051	1.92 ± 0.034
GCUGUCACCGGUGUAUUACCCUAGUGGUCGACCGGUCUGAUGAGUCUGUUCUAAGACGAAACAGC [GUUCUA]	1.949 ± 0.011	1.89 ± 0.039
GCUGUCACCGGUGUAUUACCCUAGUGGUCGACCGGUCUGAUGAGUCUGUUCUGAGACGAAACAGC [GUUCUG]	1.89 ± 0.058	1.54 ± 0.03
GCUGUCACCGGUGUAUUACCCUAGUGGUCGACCGGUCUGAUGAGUCUGUUCUCAGACGAAACAGC [GUUCUC]	1.981 ± 0.0077	1.95 ± 0.02
GCUGUCACCGGUGUAUUACCCUAGUGGUCGACCGGUCUGAUGAGUCUCUUCCAAGACGAAACAGC [CUUCCA]	1.93 ± 0.043	1.91 ± 0.091
GCUGUCACCGGUGUAUUACCCUAGUGGUCGACCGGUCUGAUGAGUCUCUUCCUAGACGAAACAGC [CUUCCU]	1.98 ± 0.038	1.96 ± 0.032
GCUGUCACCGGUGUAUUACCCUAGUGGUCGACCGGUCUGAUGAGUCUGUUCGAAGACGAAACAGC [GUUCGA]	1.95 ± 0.043	1.76 ± 0.023
GCUGUCACCGGUGUAUUACCCUAGUGGUCGACCGGUCUGAUGAGUCUGUUCGCAGACGAAACAGC [GUUCGC]	1.97 ± 0.025	1.96 ± 0.048
GCUGUCACCGGUGUAUUACCCUAGUGGUCGACCGGUCUGAUGAGUCUGUUCGGAGACGAAACAGC [GUUCGG]	1.908 ± 0.019	1.604 ± 0.0043
GCUGUCACCGGUGUAUUACCCUAGUGGUCGACCGGUCUGAUGAGUCUCUUGACAGACGAAACAGC [CUUGAC]	1.923 ± 0.019	1.812 ± 0.0094
GCUGUCACCGGUGUAUUACCCUAGUGGUCGACCGGUCUGAUGAGUCUAUUCGAAGACGAAACAGC [AUUCGA]	1.91 ± 0.042	1.738 ± 0.015
GCUGUCACCGGUGUAUUACCCUAGUGGUCGACCGGUCUGAUGAGUCUAUUCGCAGACGAAACAGC [AUUCGC]	1.96 ± 0.04	1.89 ± 0.023
GCUGUCACCGGUGUAUUACCCUAGUGGUCGACCGGUCUGAUGAGUCUAUUCGUAGACGAAACAGC [AUUCGU]	1.93 ± 0.0044	1.897 ± 0.018
